# Reference: patent publication US20170298096A1 (CANIMGUIDE THERAPEUTICS, published 2017)
# No end group written: not given here.
# Biological target: T1, His-tagged P3028 (human, also: His-tag, terminus and sequence not given here)
# T1 construct: in solution at 0.5 ug/mL over the peptide cards; found with anti-His-tag antibody and rabbit anti-mouse peroxidase (rampo); also called PGE73; not shown: His-tag
# T1 peptide: VFDEFKPLVEEPQNLIK
# Test: PEPSCAN chip ELISA, His-P3028 in solution;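 also: score is the raw OD at 405 nm from peroxidase colour with ABTS, imaged by CCD camera before and after staining, with wells showing air bubbles set to zero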
row,Binder,RAMPO Score [rampo score]
1,KKADTFFVKLSLFTER [SEQ ID NO 282],427
2,KKLDTFFVKLNLFTER [SEQ ID NO 347],451
3,KKDDTFFVKLSLFTER [SEQ ID NO 284],492
4,KKLDTPFVKLSLFTER [SEQ ID NO 317],497
5,KKLDTFFGKLSLFTER [SEQ ID NO 327],379
6,KKLDTFQVKLSLFTER [SEQ ID NO 322],511
7,KKLDTFFVKLHLFTER [SEQ ID NO 345],535
8,KKLDTMFVKLSLFTER [SEQ ID NO 315],467
9,KKLDTFFVRLSLFTER [SEQ ID NO 331],374
10,KKLDCFFVKLSLFTER [SEQ ID NO 304],449
11,KKSDTFFVKLSLFTER [SEQ ID NO 295],393
12,KKLDTFFVKGSLFTER [SEQ ID NO 334],495
13,KKLDTNFVKLSLFTER [SEQ ID NO 316],446
14,KKLDNFFVKLSLFTER [SEQ ID NO 306],436
15,KKLDTFFVKLTLFTER [SEQ ID NO 349],520
16,KKLDSFFVKLSLFTER [SEQ ID NO 310],458
17,KKGDTFFVKLSLFTER [SEQ ID NO 287],563
18,KKLDTFMVKLSLFTER [SEQ ID NO 321],712
19,KKNDTFFVKLSLFTER [SEQ ID NO 292],374
20,KKLDTTFVKLSLFTER [SEQ ID NO 318],481
21,KKLDTFLVKLSLFTER [SEQ ID NO 320],517
22,KKLDTFFLKLSLFTER [SEQ ID NO 328],411
23,KKLDTFFVKMSLFTER [SEQ ID NO 336],460
24,KKLDTFFVKTSLFTER [SEQ ID NO 342],399

row,Binder,RAMPO Score [rampo score]
1,KKLDWFFVKLSLFTER [SEQ ID NO 311],418
2,KKLDTFFVKPSLFTER [SEQ ID NO 338],436
3,KKLDTFFFKLSLFTER [SEQ ID NO 326],358
4,KKLDTIFVKLSLFTER [SEQ ID NO 314],466
5,KKEDTFFVKLSLFTER [SEQ ID NO 285],528
6,KKLATFFVKLSLFTER [SEQ ID NO 298],494
7,KKLDTFFVKASLFTER [SEQ ID NO 332],426
8,KKLDQFFVKLSLFTER [SEQ ID NO 308],535
9,KKCDTFFVKLSLFTER [SEQ ID NO 283],432
10,KKLDTFVVKLSLFTER [SEQ ID NO 325],527
11,KKLDTFFVKLSAFTER [SEQ ID NO 350],462
12,KKLYTFFVKLSLFTER [SEQ ID NO 303],422
13,KKFDTFFVKLSLFTER [SEQ ID NO 286],393
14,KKHDTFFVKLSLFTER [SEQ ID NO 288],477
15,KKLDTFFVKLSHFTER [SEQ ID NO 351],460
16,KKLDTFFVKNSLFTER [SEQ ID NO 337],365
17,KKLDTFFVKISLFTER [SEQ ID NO 335],415
18,KKLDTFTVKLSLFTER [SEQ ID NO 324],517
19,KKLDTFFVKLSIFTER [SEQ ID NO 352],456
20,KKLDTFFRKLSLFTER [SEQ ID NO 330],365
21,KKTDTFFVKLSLFTER [SEQ ID NO 296],451
22,KKLDTVFVKLSLFTER [SEQ ID NO 319],547
23,KKLDTFSVKLSLFTER [SEQ ID NO 323],700
24,KKQDTFFVKLSLFTER [SEQ ID NO 293],473

row,Binder,RAMPO Score [rampo score]
1,KKLWTFFVKLSLFTER [SEQ ID NO 302],443
2,KKLDTFFVKLQLFTER [SEQ ID NO 348],768
3,KKIDTFFVKLSLFTER [SEQ ID NO 289],454
4,KKLDTFFVKLMLFTER [SEQ ID NO 346],744
5,KKLDTFFVKSSLFTER [SEQ ID NO 341],351
6,KKKDTFFVKLSLFTER [SEQ ID NO 290],386
7,KKMDTFFVKLSLFTER [SEQ ID NO 291],460
8,KKRDTFFVKLSLFTER [SEQ ID NO 294],370
9,KKLITFFVKLSLFTER [SEQ ID NO 300],430
10,KKVDTFFVKLSLFTER [SEQ ID NO 297],377
11,KKLDRFFVKLSLFTER [SEQ ID NO 309],430
12,KKLDTFFVKQSLFTER [SEQ ID NO 339],470
13,KKLDTFFPKLSLFTER [SEQ ID NO 329],456
14,KKLDTAFVKLSLFTER [SEQ ID NO 313],575
15,KKLDYFFVKLSLFTER [SEQ ID NO 312],425
16,KKLDPFFVKLSLFTER [SEQ ID NO 307],427
17,KKLDTFFVKVSLFTER [SEQ ID NO 343],658
18,KKLDTFFVKYSLFTER [SEQ ID NO 344],382
19,KKLDTFFVKRSLFTER [SEQ ID NO 340],439
20,KKLDTFFVKFSLFTER [SEQ ID NO 333],403
21,KKLETFFVKLSLFTER [SEQ ID NO 299],417
22,KKLDMFFVKLSLFTER [SEQ ID NO 305],475
23,KKLDTFFVKLSMFTER [SEQ ID NO 353],499
